# From article PMC5548138 (Neuron, 2017)
# B1: HA-tagged α2δ-3 (mouse) (natural protein, UniProt Q9Z1L5 34-1091, looked up)
# chain: EQQIPLSVVKLWASAFGGEIKSIAAKYSGSQLLQKKYKEYEKDVAIEEIDGLQLVKKLAKIMEEMFHKKSEAVRRLVEAAEEAHLKHEFDADLQYEYFNAVLINERDKDGNFLELGKEFILAPNDHFNNLPVNISLSDVQVPTNMYNKDPAIVNGVYWSESLNKVFVDNFDRDPSLIWQYFGSAKGFFRQYPGIKWEPDENGVIAFDCRNRKWYIQAATSPKDVVILVDVSGSMKGLRLTIAKQTVSSILDTLGDDDFFNIITYNEELHYVEPCLNGTLVQADRTNKEHFREHLDKLFAKGIGMLDIALNEAFNILSDFNHTGQGSICSQAIMLITDGAVDTYDTIFAKYNWPDRKVRIFTYLIGREAAFADNLKWMACANKGFFTQISTLADVQENVMEYLHVLSRPKVIDQEHDVVWTEAYIDSTLPQAQKLADDQGLVLMTTVAMPVFSKQNETRSKGILLGVVGTDVPVKELLKTIPKYKLGIHGYAFAITNNGYILTHPELRPLYEEGKKRRKPNYSSVDLSEVEWEDRDDVLRNAMVNRKTGKFSMEVKKTVDKGKRVLVMTNDYYYTDIKGTPFSLGVALSRGHGKYFFRGNVTIEEGLHDLEHPDVSLADEWSYCNTDLHPEHRHLSQLEAIKLYLKGKEPLLQCDKELIQEVLFDAVVSAPIEAYWTSLALNKSENSDKGVEVAFLGTRTGLSRINLFVGAEQLTNQDFLKAGDKENIFNADHFPLWYRRAAEQIAGSFVYSIPFSTGTVNKSNVVTASTSIQLLDERKSPVVAAVGIQMKLEFFQRKFWTASRQCASLDGKCSISCDDETVNCYLIDNNGFILVSEDYTQTGDFFGEVEGAVMNKLLTMGSFKRITLYDYQAMCRANKESSDSAHGLLDPYKAFLSAAKWIMTELVLFLVEFNLCSWWHSDMTAKAQKLKQTLEPCDTEYPAFVSERTIKETTGNIACEDCSKSFVIQQIPSSNLFMVVVDSSCLCESVAPITMAPIEIRYNESLKCERLKAQKIRRRPESCHGFHPEENARECGGASSLQAQAALLLLPLVSSLFSR
# Target: recombinant bovine NX-1α protein (btNX-1α), ectodomain L1-L6 his6 (bovine, UniProt Q28146 31-1454)
# Sequence (Q28146 31-1454): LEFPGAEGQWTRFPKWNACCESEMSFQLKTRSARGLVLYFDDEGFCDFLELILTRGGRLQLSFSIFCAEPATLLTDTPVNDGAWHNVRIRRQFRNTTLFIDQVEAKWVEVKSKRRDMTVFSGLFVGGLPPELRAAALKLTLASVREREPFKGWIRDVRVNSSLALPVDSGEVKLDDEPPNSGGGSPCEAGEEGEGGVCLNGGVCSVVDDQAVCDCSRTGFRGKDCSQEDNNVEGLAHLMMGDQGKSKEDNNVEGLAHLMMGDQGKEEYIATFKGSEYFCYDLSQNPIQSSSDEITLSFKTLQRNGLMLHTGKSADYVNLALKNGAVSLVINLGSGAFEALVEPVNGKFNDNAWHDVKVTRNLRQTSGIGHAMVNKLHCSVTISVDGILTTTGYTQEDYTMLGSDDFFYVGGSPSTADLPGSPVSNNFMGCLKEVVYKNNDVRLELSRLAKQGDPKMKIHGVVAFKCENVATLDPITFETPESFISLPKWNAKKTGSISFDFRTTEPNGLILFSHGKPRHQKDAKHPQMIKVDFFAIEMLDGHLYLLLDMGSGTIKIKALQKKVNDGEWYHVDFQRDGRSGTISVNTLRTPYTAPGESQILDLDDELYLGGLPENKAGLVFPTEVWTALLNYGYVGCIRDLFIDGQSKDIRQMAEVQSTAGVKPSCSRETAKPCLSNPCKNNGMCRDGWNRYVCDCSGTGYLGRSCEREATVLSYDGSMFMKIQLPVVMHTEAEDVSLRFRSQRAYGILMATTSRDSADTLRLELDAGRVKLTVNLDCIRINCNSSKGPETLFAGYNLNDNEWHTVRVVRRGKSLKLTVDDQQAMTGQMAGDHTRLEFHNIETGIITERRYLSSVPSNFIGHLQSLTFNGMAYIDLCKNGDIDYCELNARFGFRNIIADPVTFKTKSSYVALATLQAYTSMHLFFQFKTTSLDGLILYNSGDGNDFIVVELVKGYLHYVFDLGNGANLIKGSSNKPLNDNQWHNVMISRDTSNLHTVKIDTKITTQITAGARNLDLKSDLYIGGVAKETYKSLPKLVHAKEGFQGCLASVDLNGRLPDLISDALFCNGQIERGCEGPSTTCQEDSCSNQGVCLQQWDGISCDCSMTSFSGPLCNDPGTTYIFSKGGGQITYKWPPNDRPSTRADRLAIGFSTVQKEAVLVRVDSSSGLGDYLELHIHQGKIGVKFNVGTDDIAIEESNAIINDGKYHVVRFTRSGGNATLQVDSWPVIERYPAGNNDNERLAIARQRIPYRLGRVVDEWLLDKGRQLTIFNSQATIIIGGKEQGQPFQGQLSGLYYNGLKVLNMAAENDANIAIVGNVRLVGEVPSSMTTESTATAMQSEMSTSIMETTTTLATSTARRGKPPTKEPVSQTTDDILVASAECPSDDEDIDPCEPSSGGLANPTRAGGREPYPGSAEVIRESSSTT
# Experiment: co-IP
binder,measurement,value
B1,Kd,~40 nM
